Like-named read-outs stand apart in the source and are kept apart here.
Assays:
HLA-A*0201 (human) [1] = experiment: competition with radiolabeled probe peptide for purified soluble HLA-A*0201
HLA-A0201 (human) [2] = experiment: competition with 125I-labelled probe peptide, purified HLA
HLA-A0201 (human) [3] = experiment: competition vs 125I probe peptide, purified HLA-A*0201
HLA-A*0201 (human) [4] = experiment: competition binding, purified soluble HLA, 125I-labelled probe peptide
HLA-B0702 (human) [5] = experiment: competition vs 125I probe peptide, purified HLA
HLA-B0702 (human) [6] = experiment: competition with 125I-labelled probe peptide on purified soluble HLA; conditions: remark: other sources report otherwise
HLA-B0702 (human) [7] = molecular target: HLA-B0702 (human)
HLA-DRB1*0301 (human) = experiment: competition vs 125I-labelled probe peptide, purified HLA-DR
HLA-DRB1*0101 (human) = experiment: competition vs 125I-labelled probe peptide, purified HLA-DR
HLA-B*0702 (human) = experiment: competition with 125I-labeled probe peptide, purified HLA
HLA-A*0301 (human) = experiment: competition with 125I-labelled probe peptide on purified soluble HLA
[8] = remark: other sources report otherwise

B1: … (peptide)
peptide: CLVDYPYRL
modifications: not checked
- IC50 (HLA-A*0201 (human) [1]): 437 nM
- Ki (HLA-A0201 (human) [2]): 437 nM

B2: … (peptide)
peptide: YQATVCARA
modifications: not checked
- Ki (HLA-A0201 (human) [3]): 20 nM
- IC50 (HLA-A*0201 (human) [4]): 20 nM

B3: … (peptide)
peptide: NLPGCSFSI
modifications: not checked
- IC50 (HLA-A*0201 (human) [1]; [8]): 83 nM
- Ki (HLA-A0201 (human) [3]; [8]): 70 nM
- Ki (HLA-A2402 (human); [8]): 8 nM

B4: … (peptide)
peptide: APTLWARMIL
modifications: not checked
- Ki (HLA-B0702 (human) [5]; [8]): 1 nM
- Ki (HLA-B0702 (human) [6]): 1 nM

B5: … (peptide)
peptide: APPPSWDQM
modifications: not checked
- Ki (HLA-B0702 (human) [7]; [8]): < 1000 nM

B6: … (SEQ ID NO 2193) (peptide)
peptide: PTHYVPESDAAARVT
modifications: not checked
- IC50 (HLA-DRB1*0301 (human)): 4950 nM

B7: … (peptide)
peptide: GRKPARLIV
modifications: not checked
- Ki (HLA-Cw0602 (human)): 2040 nM

B8: … (peptide)
peptide: GLTHIDAHF
modifications: not checked
- Ki (HLA-A2402 (human)): 3 nM

B9: … (SEQ ID NO 2137) (peptide)
peptide: GARLVVLATATPPGS
modifications: not checked
- IC50 (HLA-DRB1*0101 (human); [8]): 173 nM

B10: … (peptide)
peptide: YRRCRASGV
modifications: not checked
- Ki (HLA-Cw0602 (human)): 634 nM

B11: … (peptide)
peptide: RLYIGGPLT
modifications: not checked
- Ki (HLA-A0201 (human) [3]): 536 nM

B12: … (peptide)
peptide: APLGGAARAL
modifications: not checked
- IC50 (HLA-B*0702 (human); [8]): 0.8 nM
- Ki (HLA-B0702 (human) [5]; [8]): 1 nM
- Ki (HLA-B0702 (human) [6]): 1 nM

B13: … (peptide)
peptide: MALYDVVST
modifications: not checked
- Ki (HLA-A0201 (human) [3]): 1140 nM

B14: … (peptide)
peptide: FLLALLSCL
modifications: not checked
- IC50 (HLA-A*0201 (human) [1]; [8]): 136 nM

B15: … (peptide)
peptide: APLGGAARA
modifications: not checked
- IC50 (HLA-B*0702 (human)): 115 nM
- Ki (HLA-B0702 (human) [5]): 115 nM

B16: … (peptide)
peptide: AAYAAQGYK
modifications: not checked
- Ki (HLA-A0301 (human)): < 1000 nM

B17: … (SEQ ID NO 2226) (peptide)
peptide: TTIMAKNEVFCVQPE
modifications: not checked
- IC50 (HLA-DRB1*0101 (human); [8]): 3730 nM

B18: … (peptide)
peptide: KVLVLNPSV
modifications: not checked
- IC50 (HLA-A*0201 (human) [1]): 50 nM
- Ki (HLA-A0201 (human) [3]): 50 nM

B19: … (peptide)
peptide: ALAHGVRVL
modifications: not checked
- Ki (HLA-B0702 (human) [5]; [8]): 7950 nM
- Ki (HLA-A0201 (human) [2]; [8]): 627 nM

B20: … (peptide)
peptide: DLCGSVFLV
modifications: not checked
- Ki (HLA-A0201 (human) [2]; [8]): 789 nM

B21: … (SEQ ID NO 2245) (peptide)
peptide: WESVFTGLTHIDAHF
modifications: not checked
- IC50 (HLA-DRB1*0101 (human); [8]): 122 nM

B22: … (peptide)
peptide: RKPARLIVF
modifications: not checked
- Ki (HLA-Cw0602 (human)): 8280 nM

B23: … (peptide)
peptide: TLWARMILM
modifications: not checked
- Ki (HLA-A0201 (human) [3]): 8 nM

B24: … (peptide)
peptide: SPGQRVEFL
modifications: not checked
- Ki (HLA-B0702 (human) [7]; [8]): < 1000 nM

B25: … (SEQ ID NO 2199) (peptide)
peptide: RAAVCTRGVAKAVDF
modifications: not checked
- IC50 (HLA-DRB1*0101 (human)): 619 nM

B26: … (peptide)
peptide: TPAETSVRL
modifications: not checked
- Ki (HLA-B0702 (human) [7]): < 1000 nM

B27: … (peptide)
peptide: TYSTYGKFL
modifications: not checked
- Ki (HLA-Cw0602 (human); [8]): 4860 nM
- Ki (HLA-Cw0702 (human)): 239 nM

B28: … (SEQ ID NO 2155) (peptide)
peptide: GVNYATGNLPGCSFS
modifications: not checked
- IC50 (HLA-DRB1*0101 (human)): 4560 nM

B29: … (SEQ ID NO 2125) (peptide)
peptide: DVVVVATDALMTGYT
modifications: not checked
- IC50 (HLA-DRB1*0101 (human); [8]): 456 nM

B30: … (SEQ ID NO 2142) (peptide)
peptide: GHRMAWDMMMNWSPT
modifications: not checked
- IC50 (HLA-DRB1*0101 (human)): 183 nM
- IC50 (HLA-DRB1*0301 (human)): 919 nM

B31: … (peptide)
peptide: APTGSGKST
modifications: not checked
- IC50 (HLA-B*0702 (human)): 370 nM
- Ki (HLA-B0702 (human) [5]): 370 nM

B32: … (peptide)
peptide: ATLGFGAYM
modifications: not checked
- Ki (HLA-B0702 (human) [5]): 13000 nM

B33: … (peptide)
peptide: VVSTLPQAV
modifications: not checked
- Ki (HLA-A0201 (human) [3]): 884 nM

B34: … (SEQ ID NO 2166) (peptide)
peptide: LAGYGAGVAGALVAF
modifications: not checked
- IC50 (HLA-DRB1*0101 (human); [8]): 137 nM

B35: … (SEQ ID NO 2153) (peptide)
peptide: GSSYGFQYSPGQRVE
modifications: not checked
- IC50 (HLA-DRB1*0101 (human); [8]): 11 nM

B36: … (SEQ ID NO 2192) (peptide)
peptide: PQTFQVAHLHAPTGS
modifications: not checked
- IC50 (HLA-DRB1*0101 (human)): 22 nM

B37: … (peptide)
peptide: APTLWARMI
modifications: not checked
- Ki (HLA-B0702 (human) [7]; [8]): < 1000 nM

B38: … (peptide)
peptide: GMFDSSVLC
modifications: not checked
- IC50 (HLA-A*0201 (human) [1]): 114 nM
- Ki (HLA-A0201 (human) [3]): 71 nM

B39: … (peptide)
peptide: YLFNWAVRT
modifications: not checked
- Ki (HLA-A0201 (human) [3]): 29 nM
- IC50 (HLA-A*0201 (human) [4]): 29 nM

B40: … (peptide)
peptide: YRRCRASGVL
modifications: not checked
- Ki (HLA-Cw0702 (human)): 83 nM

B41: … (SEQ ID NO 2110) (peptide)
peptide: ASCLRKLGVPPLRVW
modifications: not checked
- IC50 (HLA-DRB1*0101 (human)): 4.9 nM

B42: … (SEQ ID NO 2149) (peptide)
peptide: GPRLGVRATRKTSER
modifications: not checked
- IC50 (HLA-DRB1*0301 (human)): 18900 nM

B43: … (peptide)
peptide: VILDSFDPL
modifications: not checked
- Ki (HLA-A2402 (human)): > 20000 nM

B44: … (peptide)
peptide: GRRGIYRFV
modifications: not checked
- Ki (HLA-Cw0602 (human)): 576 nM

B45: … (SEQ ID NO 2157) (peptide)
peptide: GYKVLVLNPSVAATL
modifications: not checked
- IC50 (HLA-DRB1*0101 (human)): 8.4 nM

B46: … (peptide)
peptide: YIPLVGAPL
modifications: not checked
- IC50 (HLA-A*0201 (human) [1]; [8]): 337 nM
- Ki (HLA-A0201 (human) [3]; [8]): 77 nM

B47: … (peptide)
peptide: IMACMSADL
modifications: not checked
- Ki (HLA-A0201 (human) [3]; [8]): 66 nM
- IC50 (HLA-A*0201 (human) [4]; [8]): 66 nM

B48: … (peptide)
peptide: DQRPYCWHY
modifications: not checked
- Ki (HLA-Cw0702 (human)): 710 nM

B49: … (peptide)
peptide: RVFTEAMTR
modifications: not checked
- Ki (HLA-A0301 (human)): < 1000 nM
- IC50 (HLA-A*0301 (human)): 45 nM

B50: … (peptide)
peptide: VTLTHPITK
modifications: not checked
- Ki (HLA-A0301 (human); [8]): < 1000 nM

B51: … (SEQ ID NO 2213) (peptide)
peptide: SKGWRLLAPITAYAQ
modifications: not checked
- IC50 (HLA-DRB1*0101 (human)): 0.4 nM

B52: … (peptide)
peptide: RVCEKMALY
modifications: not checked
- Ki (HLA-A0301 (human)): < 1000 nM
- IC50 (HLA-A*0301 (human)): 53 nM

B53: … (SEQ ID NO 2105) (peptide)
peptide: ADLMGYIPLVGAPLG
modifications: not checked
- IC50 (HLA-DRB1*0101 (human); [8]): 8330 nM

B54: … (peptide)
peptide: YYRGLDVSVI
modifications: not checked
- Ki (HLA-Cw0702 (human)): 87 nM
- Ki (HLA-A2402 (human)): 2 nM

B55: … (SEQ ID NO 2111) (peptide)
peptide: ASQLSAPSLKATCTT
modifications: not checked
- IC50 (HLA-DRB1*0101 (human)): 329 nM

B56: … (peptide)
peptide: NIIMYAPTL
modifications: not checked
- Ki (HLA-A0201 (human) [3]): 70 nM
- IC50 (HLA-A*0201 (human) [4]): 70 nM

B57: … (peptide)
peptide: DLMGYIPLV
modifications: not checked
- IC50 (HLA-A*0201 (human) [1]; [8]): 83 nM
- Ki (HLA-A0201 (human) [2]; [8]): 36 nM

B58: … (peptide)
peptide: NAVAYYRGL
modifications: not checked
- Ki (HLA-Cw0602 (human); [8]): 10800 nM

B59: … (peptide)
peptide: VAYYRGLDV
modifications: not checked
- Ki (HLA-Cw0602 (human)): 231 nM

B60: … (peptide)
peptide: RMILMTHFF
modifications: not checked
- Ki (HLA-A2402 (human); [8]): 6 nM

B61: … (peptide)
peptide: LPRRGPRLG
modifications: not checked
- IC50 (HLA-B*0702 (human)): 124 nM

B62: … (peptide)
peptide: IIMYAPTLW
modifications: not checked
- Ki (HLA-A2402 (human)): 0.8 nM

B63: … (peptide)
peptide: LPRRGPRLGV
modifications: not checked
- Ki (HLA-B0702 (human) [5]; [8]): 3 nM
- Ki (HLA-B0702 (human) [6]): 3 nM

B64: … (peptide)
peptide: QIVGGVYLL
modifications: not checked
- IC50 (HLA-A*0201 (human) [1]): 228 nM

B65: … (peptide)
peptide: YAAQGYKVLV
modifications: not checked
- Ki (HLA-Cw0602 (human)): 9210 nM

Reference: patent US20060093617A1
